Experiments:
C3b [1] = biological target: T1, C3b (human, UniProt P01024 23-667; P01024 749-1663); assay: BLI (OctetRed96), immobilised biotinylated C3b, FHL-1 in solution
T1 construct: In the cofactor assays it was plain 'pure C3b protein'; also called pure C3b protein; biotinylated C3b protein
Description: (§1) The affinity of CR1a for C3b protein was measured using OctetRed96 System (ForteBio, Pall Corp., USA). Biotinylated C3b protein was diluted in 0.2% PBST to final concentration of 0.4 μg/mL and loaded onto High Precision Streptavidin (SAX) Biosensors (ForteBio, Pall Corp., USA) for 600 s, previously hydrated with the same buffer for 20 min. C3b-loaded sensors were then washed with 0.2% PBST for 150 s (baseline) and dipped into wells containing CR1a in different concentrations ranging from 30.0 μg/mL to 2.6 μg/mL for 600 s (association) followed by wash with 0.2% PBST for 600 s (dissociation). Association and dissociation profiles were recorded and analysed with ForeBio Data Analysis v9 (ForteBio, Pall Corp., USA). The negative control i.e. 0.2% PBST containing well was used in parallel to subtract binding resulting from nonspecific interactions with the sensors. Experiments were performed using the kinetics mode, at 25° C. and sample plates were pre-agitated for 3 min. The binding profiles were globally fitted to 1:1 (one analyte in solution to one binding site on the surface). […] Binding affinities were also determined for native soluble C3b-binding complement regulators Factor H (FH) and FHL-1 to immobilised C3b.

C3b [2] = biological target: T1, C3b; assay: BLI (OctetRed96), biotinylated C3b on streptavidin (SAX) sensors, FHL-1 in solution; the same table prints KD Error (%) 3.1325, Full R^2 0.9550, '278 µgml' under Data Location, FHL-1 ~50kDa
Description: as §1

C3b [3] = biological target: T1, C3b; assay: BLI (OctetRed96), immobilised biotinylated C3b, FH in solution
Description: as §1

C3b [4] = biological target: T1, C3b; assay: BLI (OctetRed96), biotinylated C3b on streptavidin (SAX) sensors, FH in solution; the same table prints KD Error (%) 3.0192, Full R^2 0.9770, '167 µgml' under Data Location, FH ~155kDa
Description: as §1

C3b [5] = biological target: T1, C3b; assay: BLI (OctetRed96), biotinylated C3b on streptavidin (SAX) sensors, CR1a in solution; the same table prints KD Error (%) 0.4186, Full R^2 0.8731, '30 µgml' under Data Location
Description: as §1

T1 sequence (P01024 23-667 limits assumed, chain 1 of 2): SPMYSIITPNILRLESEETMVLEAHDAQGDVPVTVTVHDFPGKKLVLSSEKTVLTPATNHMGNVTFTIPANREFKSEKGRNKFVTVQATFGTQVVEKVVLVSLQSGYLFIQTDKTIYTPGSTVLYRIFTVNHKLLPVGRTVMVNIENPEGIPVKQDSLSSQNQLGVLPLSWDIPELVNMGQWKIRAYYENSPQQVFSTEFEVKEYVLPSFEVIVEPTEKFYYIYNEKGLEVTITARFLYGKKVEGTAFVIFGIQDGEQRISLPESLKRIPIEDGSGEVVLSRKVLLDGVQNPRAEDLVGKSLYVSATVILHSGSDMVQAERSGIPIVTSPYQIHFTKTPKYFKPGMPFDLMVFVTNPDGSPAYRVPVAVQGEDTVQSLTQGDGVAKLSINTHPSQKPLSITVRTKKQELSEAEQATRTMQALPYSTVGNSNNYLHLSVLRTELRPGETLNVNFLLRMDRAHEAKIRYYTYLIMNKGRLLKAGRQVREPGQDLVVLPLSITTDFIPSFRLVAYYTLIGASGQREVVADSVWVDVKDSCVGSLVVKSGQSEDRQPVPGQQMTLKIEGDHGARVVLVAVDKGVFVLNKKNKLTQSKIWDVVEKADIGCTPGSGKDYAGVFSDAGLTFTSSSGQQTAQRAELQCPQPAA
T1 sequence (P01024 749-1663 limits assumed, chain 2 of 2): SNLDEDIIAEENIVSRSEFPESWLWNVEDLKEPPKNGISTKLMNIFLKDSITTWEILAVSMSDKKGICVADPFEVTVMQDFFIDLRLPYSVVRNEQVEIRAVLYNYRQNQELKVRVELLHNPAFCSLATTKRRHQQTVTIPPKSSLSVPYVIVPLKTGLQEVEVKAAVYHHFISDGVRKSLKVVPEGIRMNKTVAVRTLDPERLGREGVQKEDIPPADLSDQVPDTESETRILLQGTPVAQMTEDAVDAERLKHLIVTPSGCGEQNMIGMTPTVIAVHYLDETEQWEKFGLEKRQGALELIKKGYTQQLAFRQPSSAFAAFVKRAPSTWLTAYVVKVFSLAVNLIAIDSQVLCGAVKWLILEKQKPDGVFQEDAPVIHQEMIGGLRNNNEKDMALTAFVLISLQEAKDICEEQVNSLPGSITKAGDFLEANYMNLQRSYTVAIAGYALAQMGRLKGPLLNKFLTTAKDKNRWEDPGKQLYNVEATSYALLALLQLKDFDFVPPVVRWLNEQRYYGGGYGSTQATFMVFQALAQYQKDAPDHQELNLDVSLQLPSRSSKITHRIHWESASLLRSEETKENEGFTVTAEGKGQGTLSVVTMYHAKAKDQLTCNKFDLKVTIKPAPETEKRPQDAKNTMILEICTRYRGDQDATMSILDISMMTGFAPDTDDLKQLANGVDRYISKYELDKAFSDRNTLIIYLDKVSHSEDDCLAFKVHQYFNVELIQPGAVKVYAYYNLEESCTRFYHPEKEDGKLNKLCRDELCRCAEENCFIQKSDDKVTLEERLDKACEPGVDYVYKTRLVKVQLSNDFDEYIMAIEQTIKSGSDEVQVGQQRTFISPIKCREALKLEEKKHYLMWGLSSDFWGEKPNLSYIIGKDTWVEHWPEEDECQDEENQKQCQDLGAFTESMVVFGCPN

B1: Complement Factor H isoform FHL-1 (other)
chain: EDCNELPPRRNTEILTGSWSDQTYPEGTQAIYKCRPGYRSLGNVIMVCRKGEWVALNPLRKCQKRPCGHPGDTPFGTFTLTGGNVFEYGVKAVYTCNEGYQLLGEINYRECDTDGWTNDIPICEVVKCLPVTAPENGKIVSSAMEPDREYHFGQAVRFVCNSGYKIEGDEEMHCSDDGFWSKEKPKCVEISCKSPDVINGSPISQKIIYKENERFQYKCNMGYEYSERGDAVCTESGWRPLPSCEEKSCDNPYIPNGDYSPLRIKHRTGDEITYQCRNGFYPATRGNTAKCTSTGWIPAPRCTLKPCDYPDIKHGGLYHENMRRPYFPVAVGKYYSYYCDEHFETPSGSYWDHIHCTQDGWSPAVPCLRKCYFPYLENGYNQNYGRKFVQGKSIDVACHPGYALPKAQTTVTCMENGWSPTPRCIRVSFTL
notes: also called factor H-like protein 1
Kd (C3b [1]): 1200 nM
Kd (C3b [2]): 1170 nM

B2: Complement Factor H (FH) (other)
chain: EDCNELPPRRNTEILTGSWSDQTYPEGTQAIYKCRPGYRSLGNVIMVCRKGEWVALNPLRKCQKRPCGHPGDTPFGTFTLTGGNVFEYGVKAVYTCNEGYQLLGEINYRECDTDGWTNDIPICEVVKCLPVTAPENGKIVSSAMEPDREYHFGQAVRFVCNSGYKIEGDEEMHCSDDGFWSKEKPKCVEISCKSPDVINGSPISQKIIYKENERFQYKCNMGYEYSERGDAVCTESGWRPLPSCEEKSCDNPYIPNGDYSPLRIKHRTGDEITYQCRNGFYPATRGNTAKCTSTGWIPAPRCTLKPCDYPDIKHGGLYHENMRRPYFPVAVGKYYSYYCDEHFETPSGSYWDHIHCTQDGWSPAVPCLRKCYFPYLENGYNQNYGRKFVQGKSIDVACHPGYALPKAQTTVTCMENGWSPTPRCIRVKTCSKSSIDIENGFISESQYTYALKEKAKYQCKLGYVTADGETSGSITCGKDGWSAQPTCIKSCDIPVFMNARTKNDFTWFKLNDTLDYECHDGYESNTGSTTGSIVCGYNGWSDLPICYERECELPKIDVHLVPDRKKDQYKVGEVLKFSCKPGFTIVGPNSVQCYHFGLSPDLPICKEQVQSCGPPPELLNGNVKEKTKEEYGHSEVVEYYCNPRFLMKGPNKIQCVDGEWTTLPVCIVEESTCGDIPELEHGWAQLSSPPYYYGDSVEFNCSESFTMIGHRSITCIHGVWTQLPQCVAIDKLKKCKSSNLIILEEHLKNKKEFDHNSNIRYRCRGKEGWIHTVCINGRWDPEVNCSMAQIQLCPPPPQIPNSHNMTTTLNYRDGEKVSVLCQENYLIQEGEEITCKDGRWQSIPLCVEKIPCSQPPQIEHGTINSSRSSQESYAHGTKLSYTCEGGFRISEENETTCYMGKWSSPPQCEGLPCKSPPEISHGVVAHMSDSYQYGEEVTYKCFEGFGIDGPAIAKCLGEKWSHPPSCIKTDCLSLPSFENAIPMGEKKDVYKAGEQVTYTCATYYKMDGASNVTCINSRWTGRPTCRDTSCVNPPTVQNAYIVSRQMSKYPSGERVRYQCRSPYEMFGDEEVMCLNGNWTEPPQCKDSTGKCGPPPPIDNGDITSFPLSVYAPASSVEYQCQNLYQLEGNKRITCRNGQWSEPPKCLHPCVISREIMENYNIALRWTAKQKLYSRTGESVEFVCKRGYRLSSRSHTLRTTCWDGKLEYPTCAKR
Kd (C3b [3]): 580 nM
Kd (C3b [4]): 583 nM

B3: CR1a (CCPs 8-10 of human Complement Receptor 1, secreted from HEK293 cells) (receptor)
chain: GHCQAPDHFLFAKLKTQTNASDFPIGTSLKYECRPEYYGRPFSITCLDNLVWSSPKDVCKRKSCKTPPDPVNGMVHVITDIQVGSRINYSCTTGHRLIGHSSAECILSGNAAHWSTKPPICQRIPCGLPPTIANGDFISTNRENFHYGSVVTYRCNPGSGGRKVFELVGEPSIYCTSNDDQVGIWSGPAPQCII
notes: also called Human Complement Receptor 1 CCPs 8-10; recombinant CR1a protein
Kd (C3b [5]): 21 nM

Reference: patent publication US20210145933A1 (COMPLEMENT THERAPEUTICS, published 2021)
